# Experimental data reported in patent US20120117670A1 (U3 PHARMA, published 2012).
# Changes are numbered by the printed parent chain. Numbers in names are those of the source.
# T1: Human AXL-Fc (R&D Systems, #154-AL) (human, UniProt P30530 26-451)
# T1 construct: Bought reagent; also called human AXL-Fc fusion protein; human AXL-Fc protein; not shown: Fc part of the bought fusion protein
# T1 sequence: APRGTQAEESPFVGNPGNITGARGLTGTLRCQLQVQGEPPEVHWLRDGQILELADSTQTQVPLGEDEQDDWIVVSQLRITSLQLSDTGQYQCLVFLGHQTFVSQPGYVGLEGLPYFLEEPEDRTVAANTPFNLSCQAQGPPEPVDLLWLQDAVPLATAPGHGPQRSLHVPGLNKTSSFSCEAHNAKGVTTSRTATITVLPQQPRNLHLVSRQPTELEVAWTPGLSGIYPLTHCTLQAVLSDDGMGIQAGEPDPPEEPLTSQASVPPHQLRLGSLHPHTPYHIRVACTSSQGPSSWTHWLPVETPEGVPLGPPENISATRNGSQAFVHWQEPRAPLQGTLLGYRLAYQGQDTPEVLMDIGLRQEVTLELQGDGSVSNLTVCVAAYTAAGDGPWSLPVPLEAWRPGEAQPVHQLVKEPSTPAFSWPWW
# B1: h#11B7-T25 (antibody, human IgG1, kappa)
# heavy: not shown
# light: DIQMTQSPSSLSASVGDRVTITCRASQDIGNYLRWFQQKPGKAPKLLISGATNLAAGVPSRFSGSGSGSDFTLTISSLQPEDFATYYCLQSKESPWTFGQGTKVEIKRTVAAPSVFIFPPSDEQLKSGTASVVCLLNNFYPREAKVQWKVDNALQSGNSQESVTEQDSKDSTYSLSSTLTLSKADYEKHKVYACEVTHQGLSSPVTKSFNRGEC
# notes: Humanized IgG1/kappa
# B2: h#11B7-T7 (antibody, human IgG1, kappa, V domains shown)
# VH: QVQLQESGPGLVKPSETLSLTCTVSGYSITSNYWGWIRQPPGKGLEWIGYITYSGSTSYNPSLKSRVSISRDTSKNQFSLKLSSVTAADTAVYYCAITTFYYWGQGTLVTVSS
# VL: DIQMTQSPSSLSASVGDRVTITCRASQDIGNYLRWYQQKPGKAPKLMISGATNLAAGVPSRFSGSGSGSDYTLTISSLQPEDFATYYCLQSKESPWTFGQGTKVEIKR
# notes: Humanized IgG1/kappa
# B3: h#11B7-T8 (antibody, human IgG1, kappa, V domains shown)
# VH: B2 VH
# VL: B2 VL with Y36F, M47L
# notes: Humanized IgG1/kappa
# B4: h#11B7-T9 (antibody, human IgG1, kappa, V domains shown)
# VH: B2 VH
# VL: B2 VL with Y36F, Y71F
# notes: Humanized IgG1/kappa
# B5: h#11B7-T10 (antibody, human IgG1, kappa, V domains shown)
# VH: B2 VH
# VL: B2 VL with M47L
# notes: Humanized IgG1/kappa
# B6: h#11B7-T11 (antibody, human IgG1, kappa, V domains shown)
# VH: B2 VH
# VL: B2 VL with Y36F, M47L, Y71F
# notes: Humanized IgG1/kappa
# B7: h#11B7-T12 (antibody, human IgG1, kappa, V domains shown)
# VH: B2 VH
# VL: B2 VL with Y71F
# notes: Humanized IgG1/kappa
# B8: h#11B7-T13 (antibody, human IgG1, kappa, V domains shown)
# VH: B2 VH
# VL: B2 VL with M47L, Y71F
# notes: Humanized IgG1/kappa
# B9: h#11B7-T14 (antibody, human IgG1, kappa, V domains shown)
# VH: B2 VH with I48M, V67I, S68T
# VL: B2 VL
# notes: Humanized IgG1/kappa
# B10: h#11B7-T15 (antibody, human IgG1, kappa)
# heavy: not shown
# light: B1 light with F71Y
# notes: Humanized IgG1/kappa
# B11: h#11B7-T16 (antibody, human IgG1, kappa, V domains shown)
# VH: B2 VH with I48M, V67I, S68T
# VL: B2 VL with Y36F, Y71F
# notes: Humanized IgG1/kappa
# B12: h#11B7-T17 (antibody, human IgG1, kappa, V domains shown)
# VH: B2 VH with I48M, V67I, S68T
# VL: B2 VL with M47L
# notes: Humanized IgG1/kappa
# B13: h#11B7-T18 (antibody, human IgG1, kappa)
# heavy: not shown
# light: B1 light
# notes: Humanized IgG1/kappa
# B14: h#11B7-T19 (antibody, human IgG1, kappa, V domains shown)
# VH: B2 VH with I48M, V67I, S68T
# VL: B2 VL with Y71F
# notes: Humanized IgG1/kappa
# B15: h#11B7-T20 (antibody, human IgG1, kappa, V domains shown)
# VH: B2 VH with I48M, V67I, S68T
# VL: B2 VL with M47L, Y71F
# notes: Humanized IgG1/kappa
# B16: h#11B7-T21 (antibody, human IgG1, kappa, V domains shown)
# VH: B2 VH with S68T
# VL: B2 VL
# notes: Humanized IgG1/kappa
# B17: h#11B7-T22 (antibody, human IgG1, kappa)
# heavy: not shown
# light: B1 light with F71Y
# notes: Humanized IgG1/kappa
# B18: h#11B7-T23 (antibody, human IgG1, kappa, V domains shown)
# VH: B2 VH with S68T
# VL: B2 VL with Y36F, Y71F
# notes: Humanized IgG1/kappa
# B19: h#11B7-T24 (antibody, human IgG1, kappa, V domains shown)
# VH: B2 VH with S68T
# VL: B2 VL with M47L
# notes: Humanized IgG1/kappa
# B20: h#11B7-T26 (antibody, human IgG1, kappa, V domains shown)
# VH: B2 VH with S68T
# VL: B2 VL with Y71F
# notes: Humanized IgG1/kappa
# B21: h#11B7-T27 (antibody, human IgG1, kappa)
# heavy: not shown
# light: B1 light with F36Y
# notes: Humanized IgG1/kappa
# B22: h#11D5-T1 (antibody, human IgG1, kappa, V domains shown)
# VH: QVQLQESGPGLVKPSQTLSLTCTVSGYSITSNYWGWIRQPPGMGLEWIGHITNSGNTTYNPSLKSRVTISVDTSENQFSLKLSSVTPADTAVYYCAKGAFDYWGQGTLVTVSS
# VL: DVQMTQSPSSLSASVGDRVTITCRASQDIGNYLSWYQQKPGKAPKLLIYGAIKLAVGVPSRFSGSGSGTDFTLTISSLQPEDFATYYCLQYIQFPLTFGQGTKLEIKR
# notes: Humanized antibody of rat #11D5 made from pEF6KCL/h#11D5-T1L and pEF1/FCCU/h#11D5-T1H; also called T1 (humanized #11D5)
# B23: h#11D5-T5 (antibody, human IgG1, kappa)
# heavy: not shown
# light: DIQMTQSPSSLSASVGDRVTITCRASQDIGNYLSWFQQKPGKAPRRMIYGAIKLAVGVPSRFSGSGSGTDYTLTISSLQPEDFATYYCLQYIQFPLTFGGGTKVEIKRTVAAPSVFIFPPSDEQLKSGTASVVCLLNNFYPREAKVQWKVDNALQSGNSQESVTEQDSKDSTYSLSSTLTLSKADYEKHKVYACEVTHQGLSSPVTKSFNRGEC
# notes: Humanized IgG1/kappa
# B24: h#11D5-T2 (antibody, human IgG1, kappa, V domains shown)
# VH: B22 VH with Q1E, V67I, T68S
# VL: B22 VL with V2I, Y36F, K45R, L47M, F71Y
# notes: Humanized IgG1/kappa
# B25: h#11D5-T4 (antibody, human IgG1, kappa, V domains shown)
# VH: B22 VH with E6Q, S7W, P9A, V12L, Q16E, M43K, V71R, E75K, P87A
# VL: B22 VL with V2I, L46R, D70E, Q100G, L104V
# notes: Humanized IgG1/kappa
# Assays:
# [1] = target: T1, Human AXL-Fc (R&D Systems, #154-AL); assay: ELISA on plate-adsorbed human AXL-Fc (1 ug/ml), 5-fold antibody dilution series, AP-conjugated goat anti-human IgG, fluorescent substrate (Example 13)
# [2] = target: T1, Human AXL-Fc (R&D Systems, #154-AL); assay: as above; remark: listed apart in the source
# [3] = target: T1, Human AXL-Fc (R&D Systems, #154-AL); assay: as above; remark: listed apart in the source
# [4] = target: T1, Human AXL-Fc (R&D Systems, #154-AL); assay: ELISA on plate-adsorbed human AXL-Fc (1 ug/ml), 5-fold antibody dilution series, AP-conjugated goat anti-human IgG, fluorescent substrate (Example 14)
binder,measurement,setting,value
B1,EC50 (read off the curve),[1],~0.01 µg/mL
B2,EC50 (read off the curve),[2],~0.03 µg/mL
B3,EC50 (read off the curve),[2],~0.02 µg/mL
B4,EC50 (read off the curve),[2],~0.02 µg/mL
B5,EC50 (read off the curve),[2],~0.02 µg/mL
B6,EC50 (read off the curve),[2],~0.02 µg/mL
B7,EC50 (read off the curve),[2],~0.04 µg/mL
B8,EC50 (read off the curve),[2],~0.03 µg/mL
B9,EC50 (read off the curve),[3],~0.02 µg/mL
B10,EC50 (read off the curve),[3],~0.02 µg/mL
B11,EC50 (read off the curve),[3],~0.02 µg/mL
B12,EC50 (read off the curve),[3],~0.02 µg/mL
B13,EC50 (read off the curve),[3],~0.02 µg/mL
B14,EC50 (read off the curve),[3],~0.02 µg/mL
B15,EC50 (read off the curve),[3],~0.02 µg/mL
B16,EC50 (read off the curve),[1],~0.02 µg/mL
B17,EC50 (read off the curve),[1],~0.02 µg/mL
B18,EC50 (read off the curve),[1],~0.01 µg/mL
B19,EC50 (read off the curve),[1],~0.02 µg/mL
B20,EC50 (read off the curve),[1],~0.03 µg/mL
B21,EC50 (read off the curve),[1],~0.02 µg/mL
B22,EC50 (read off the curve),[4],~0.02 µg/mL
B23,EC50 (read off the curve),[4],~0.01 µg/mL
B24,EC50 (read off the curve),[4],~0.01 µg/mL
B25,EC50 (read off the curve),[4],~0.01 µg/mL
